Test system: MS2 coat protein
Test: apparent KD of MS2 coat protein; designed switch direction (-1 OFF switch, 1 ON switch): -1; higher = weaker reporter binding
How it was run: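 Designed RNA switches were transcribed on Illumina chips by stalled E. coli RNA polymerase and titrated with SNAP-549-labelled MS2 coat protein from 0.7 or 1.5 nM, doubling to 3 µM. Step length ran from 0.8–1.5 h at the lowest concentration to 10–20 min at the highest. The apparent KD is the median over clusters for each design, from curve-fitted normalised cluster fluorescence.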

[1] = Eterna round: R95, input ligand: microRNA oligo, concentration not stated
[2] = Eterna round: R95, input ligand: FMN 200 uM
[3] = Eterna round: R95, input ligand: none
[4] = input ligand: microRNA oligo, concentration not stated

Sequence	apparent KD of MS2 coat protein (input ligand: FMN 200 uM)	apparent KD of MS2 coat protein (input ligand: none)	apparent KD of MS2 coat protein [1]	also measured
CUCGUGUUAGGAUAUCUAUCGCGGAUGACAGAGAGGACGUUGGAGAAGGAACAUGAGGAUCACCCAUGUUCUGG [Eternabot (L2) Solution 86] (Eterna round: R97, puzzle: Exclusion 4)	18.8 nM	14.5 nM	–	–
CUCUAGUCAGGAUAUCACGUUUACCGUGCACUCACAAAGCCUGAGAAGGGACUUGAGGAUCACCCAAGUGGGAA [Reedbequ] (Eterna round: R97, puzzle: Exclusion 4)	211 nM	231 nM	–	–
CUCUCUCAUGUGAGGAUAUCGAGGCAGUCCGCAAACGAGAAGGUACAUGAGGAUCACCCAUGUCAACAGUAAUG [BmEX4 C.8] (Eterna round: R97, puzzle: Brourd's mod of Exclusion 4)	143 nM	33 nM	–	–
CUCUCUCGAGGAUAUACCGUAUGGUGGAAUCUCCUCGGAAGACAUGAGGAUCACCCAUGUAGAAGGCGAGAUGG [Eternabot (L2) Solution 64] (Eterna round: R97, puzzle: Exclusion 2)	144 nM	31.3 nM	–	–
CUCUUGUUAGGAUAUCAAACUGGCAGCGGAGCUGGCAGAAGUGAGAAGGGACAUGAGGAUCACCCAUGUAAGAA [Aristeza] (puzzle: Exclusion 4)	–	–	70.2 nM	–
CUGAACUGAGGAUAUACAUGAGGAUCACCCAUGUGAUGUAGUGCACGCGUACGUGUACGUAGAAGGCAGUUCAG [Mat - Exclusion 3 - Eli Mod - D42] (Eterna round: R97, puzzle: Exclusion 3)	56.1 nM	19.8 nM	–	–
CUGAAGAAGUUAGUGGCCUACAUGAGGAUCACCCAUGUGAGGGACAUGUCGAGGCAGAAGCUGAGUGCUCGUCUGUA [JR_SV3TOV1_Sub042] (puzzle: Sensor v3, turn-off variant 1)	–	–	20 nM	apparent KD of MS2 coat protein [2]: 16 nM; apparent KD of MS2 coat protein [3]: 17 nM
CUGACUCAAGGAUAUUGUACUGCUGACAUGAGGAUCACCCAUGUAUGUUAACUCGGCCGACGAGAAGGUGACAAAA [BotMod 7 - Jieux - Exclusion 5] (Eterna round: R97, puzzle: Exclusion 5)	126 nM	111 nM	–	–
CUGAGCUGAGGAUAUACAUGAGGAUCACCCAUGUGUUGGAGCUUGCGUACAGGCAGAUGUAGAAGGCAGUUCGG [JL-ex3-3.32 Brourd mod] (puzzle: Exclusion 3)	–	–	19.5 nM	–
CUGAGGUAGCGGUCCUAUGACAUGAGGAUCACCCAUGUACCUUGCUUUGAGCUUUUAGCUCGUCUUAUGAUUCUCGG [Mat - Sensor v3 - turn-off var 1 - JL Mod - D43] (puzzle: Sensor v3, turn-off variant 1)	–	–	235 nM	apparent KD of MS2 coat protein [2]: 271 nM; apparent KD of MS2 coat protein [3]: 446 nM
CUGCCGAGAGGAUAUACUAAGCGAAGAGCCUCAUAAAAGUUACAUGAGGAUCACCCAUGUAGAAGGCUUGGGAG [Eternabot (Original) Solution 38] (Eterna round: R97, puzzle: Exclusion 2)	104 nM	54.4 nM	–	–
CUGGACCCGGCAGGAUAUAUUGUGGGCGGGCGUGGAACGACAUGAGGAUCACCCAUGUGAUUGAGGUAGAAGGGCCGAGAGGUC [Excl-NG2-LRO20] (Eterna round: R96, puzzle: Exclusion NG 2)	38.5 nM	47.7 nM	–	apparent KD of MS2 coat protein [4]: 30.6 nM
CUGGAGUCAGGAUAUGACGCAGUCCGCCCAAGUGGCGGAAAUCAGAAGGGACUUGAGGAUCACCCAAGUAAAAG [Resorama] (Eterna round: R97, puzzle: Exclusion 4)	26.8 nM	29.8 nM	–	–
CUGGUCCGAGGAUAUAUAUUGUGAUACAUGAGGAUCACCCAUGUAAUAAUAUGGAUAUAAAUAGAAGGCGGACUAG [Mat - Exclusion 5 - JL mod - D49] (puzzle: Exclusion 5)	–	–	23 nM	apparent KD of MS2 coat protein [2]: 35.8 nM; apparent KD of MS2 coat protein [3]: 27.7 nM
CUGGUCCGAGGAUAUAUUAAGUGAAACAUGAGGAUCACCCAUGUUAUUUAAUGGAAGUAAAUAGAAGGCGGACUAG [Mat - Exclusion 5 - JL mod - D54] (puzzle: Exclusion 5)	–	–	48.8 nM	apparent KD of MS2 coat protein [2]: 38.7 nM; apparent KD of MS2 coat protein [3]: 43.5 nM
CUGGUUCUAGGAUAUGCACUCACGAUCCUCCUUCAAUCGCAACAUGAGGAUCACCCAUGUAGAAGGAGAAAGUA [Eternabot (L1) Solution 91] (Eterna round: R97, puzzle: Exclusion 2)	18.5 nM	18.6 nM	–	–
CUGUAACAUGAGGAUCACCCAUGUCAGGAUAUCUAUCAUAGCAUCGAAAGAUGCGGGUAGAGAAGGGACUAUCC [ChP Ext 10-04-2015 #8] (puzzle: Exclusion 1)	–	–	14.5 nM	–
CUGUACUGAGGAUAUACAUGAGGAUCACCCAUGUGAUCUAGUGCACGCGUACGUGUACGUAGAAGGCAGUACAG [Mat - Exclusion 3 - Eli Mod - D38] (Eterna round: R97, puzzle: Exclusion 3)	792 nM	56.5 nM	–	–

Sequence	apparent KD of MS2 coat protein (input ligand: FMN 200 uM)	apparent KD of MS2 coat protein (input ligand: none)	apparent KD of MS2 coat protein [1]	also measured
CUGUAGCUAUGAGGAUAUGCCACAAAAGUAGUUGCAGAAGGCAUCCCUACCCAGUAAGAACAUGAGGAUCACCCAUGUGAUCUG [Eternabot solution 43] (Eterna round: R96, puzzle: Exclusion NG 1)	71.6 nM	63.4 nM	–	apparent KD of MS2 coat protein [4]: 44.5 nM
CUGUGCACGCUGCGGUCCUACAUGAGGAUCACCCAUGUGGUCUGGUGGCGUGGGUCGCCGGACUUGGCUCGUCUUGG [salish99_S_TOV1_R5_025] (Eterna round: R97, puzzle: Sensor, turn-off variant 1)	15.3 nM	15.9 nM	–	–
CUGUUCCGUGUAGGAUAUGCAUAUUCUCAUUAUGCAGAAGGACAUGAGGAUCACCCAUGUAUGUUAUUAUCAUAUGUUACAUGU [Design 5] (Eterna round: R96, puzzle: Exclusion NG 1)	–	–	–	apparent KD of MS2 coat protein [4]: 29.7 nM
CUGUUCCGUGUAGGAUAUGCAUAUUCUCAUUAUGCAGAAGGACAUGAGGAUCACCCAUGUAUGUUAUUAUCAUGUGUUACAUGC [Design 7] (Eterna round: R96, puzzle: Exclusion NG 1)	220 nM	38.8 nM	–	apparent KD of MS2 coat protein [4]: 35.9 nM
CUUAGGUGAGGAUAUUAGUAGUAAAUAAAUAAAAUUAUUACUGAGAAGGCACAUGAGGAUCACCCAUGUUCCUC [Salish 062 v3] (Eterna round: R97, puzzle: Exclusion 4)	548 nM	37 nM	–	–
CUUCACCCACCAGAGCUCACCCACAUACCUGCUCAGGUGACAUGAGGAUCACCCAUGUUUUUUGCCCGUCUUAUCUU [Atquertebi] (puzzle: Sensor v3, turn-off variant 2)	–	–	181 nM	apparent KD of MS2 coat protein [2]: 33.1 nM; apparent KD of MS2 coat protein [3]: 34.3 nM
CUUCAGUCAGGAUAUCUGCACGCUGGUGAGACCGGACGGAAGGAGAAGGGACAUGAGGAUCACCCAUGUAAAGC [Xesoar] (puzzle: Exclusion 4)	–	–	15.7 nM	–
CUUCGUAUAGAGGAUAUAGGUUACUACGGUAUCCUAGAAGGCUGUACAUGAGGAUCACCCAUGUACUUCAGAUC [Exclusion 6 - B - 13:d] (puzzle: Exclusion 6)	–	–	12.2 nM	–
CUUGUACAUGAGGAUCACCCAUGUUAGGAUAUCUCGCCGUCGGCUUGCCGACGGUAUUAGAGAAGGGACUUGGG [JL Tixe mod 6] (puzzle: Exclusion 1)	–	–	50.8 nM	–
CUUGUGUGAGGAUAUGAAUUGCCUGGUCAUCCAGGCUCCUGUCAGAAGGCACAUGAGGAUCACCCAUGUGGGCA [Biatire] (Eterna round: R97, puzzle: Exclusion 4)	120 nM	882 nM	–	–
CUUGUUUAUGUAGGAUAUGCCUGGCGUGCCUUUGCAGAAGGACAUGAGGAUCACCCAUGUAACAUGAGGCUCACCCAUGUCGCU [salish99_ExNG1_r04_106] (Eterna round: R96, puzzle: Exclusion NG 1)	434 nM	292 nM	–	apparent KD of MS2 coat protein [4]: 224 nM
CUUUAGUGAGGAUAUCAGUAGUAAUACAAUAGUAUUACUAUUGAGAAGGCACAUGAGGAUCACCCAUGUUCCUC [Mat - Exclusion 4 - Mod of Omei - D80] (puzzle: Exclusion 4)	–	–	27.2 nM	–
CUUUAGUGAGGAUAUCGGUAGUAAUACAAUAGUAUUACUACUGAGAAGGCACAUGAGGAUCACCCAUGUUCCUC [Mat - Exclusion 4 - Mod of Omei - D82] (Eterna round: R96, puzzle: Exclusion 4)	259 nM	29.9 nM	–	apparent KD of MS2 coat protein [4]: 25.2 nM
CUUUAGUGAGGAUAUCGGUAGUAAUACAAUAGUAUUACUACUGAGAAGGCACAUGAGGAUCACCCAUGUUCCUC [Mat - Exclusion 4 - Mod of Omei - D82] (puzzle: Exclusion 4)	–	–	30.2 nM	–
CUUUCGUCUGUGGGUGGUGACAUGAGGAUCACCCAUGUUUUGCUCGUUUUGUCUUGGGCUCGGCGCCCGGGUUCGGG [-25.2, -46.4, A 8%] (Eterna round: R97, puzzle: Sensor, turn-off variant 1)	467 nM	872 nM	–	–
CUUUUGUGAGGAUAUCAGUAGUAAAAAAAUAUAAUUACUACUGAGAAGGCACAUGAGGAUCACCCAUGUUCCUC [salish99_ex4_r3_023] (puzzle: Exclusion 4)	–	–	40.1 nM	–
CUUUUGUGAGGAUAUCAGUAGUAAAUAAAUAAAAUUAUUACUGAGAAGGCACAUGAGGAUCACCCAUGUUCCUC [salish99_ex3_r3_086] (puzzle: Exclusion 4)	–	–	36.9 nM	–
CUUUUGUGAGGAUAUCAUUAGUAAAAAAAUAAAAUUACUACUGAGAAGGCACAUGAGGAUCACCCAUGUUCCUC [salish99_ex4_r3_034] (puzzle: Exclusion 4)	–	–	37.6 nM	–
